# Experimental data reported in US20190062438A1 (CSL, published 2019).
# T1: human CD131 (human, UniProt P32927 17-897)
# T1 sequence: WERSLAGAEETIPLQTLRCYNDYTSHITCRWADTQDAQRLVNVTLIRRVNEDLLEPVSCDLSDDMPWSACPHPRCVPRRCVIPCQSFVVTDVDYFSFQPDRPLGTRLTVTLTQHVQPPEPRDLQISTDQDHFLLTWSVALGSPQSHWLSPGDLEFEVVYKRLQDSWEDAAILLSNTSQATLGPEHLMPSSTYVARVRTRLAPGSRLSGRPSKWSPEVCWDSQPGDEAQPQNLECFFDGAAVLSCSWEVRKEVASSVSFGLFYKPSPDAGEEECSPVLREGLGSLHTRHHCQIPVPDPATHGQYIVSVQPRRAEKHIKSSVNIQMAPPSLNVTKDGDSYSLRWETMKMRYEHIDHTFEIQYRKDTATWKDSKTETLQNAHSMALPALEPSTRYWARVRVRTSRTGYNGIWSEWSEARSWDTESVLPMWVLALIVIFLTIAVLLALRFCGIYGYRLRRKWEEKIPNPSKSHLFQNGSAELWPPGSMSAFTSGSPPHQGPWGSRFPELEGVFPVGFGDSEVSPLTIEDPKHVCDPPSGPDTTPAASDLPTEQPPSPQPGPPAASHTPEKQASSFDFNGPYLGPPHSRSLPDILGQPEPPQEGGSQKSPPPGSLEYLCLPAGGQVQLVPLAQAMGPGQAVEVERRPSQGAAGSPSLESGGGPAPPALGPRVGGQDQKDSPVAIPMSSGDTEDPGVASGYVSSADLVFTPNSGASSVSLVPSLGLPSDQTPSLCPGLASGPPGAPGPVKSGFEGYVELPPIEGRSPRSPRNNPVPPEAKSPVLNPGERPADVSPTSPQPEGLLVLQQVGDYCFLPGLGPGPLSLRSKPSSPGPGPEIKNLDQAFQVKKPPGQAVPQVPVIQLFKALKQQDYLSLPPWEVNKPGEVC
# T2: human GM-CSFR α-chain (human, UniProt P15509 23-400)
# T2 construct: whole, on cells; also called GMRα
# T2 sequence (looked up): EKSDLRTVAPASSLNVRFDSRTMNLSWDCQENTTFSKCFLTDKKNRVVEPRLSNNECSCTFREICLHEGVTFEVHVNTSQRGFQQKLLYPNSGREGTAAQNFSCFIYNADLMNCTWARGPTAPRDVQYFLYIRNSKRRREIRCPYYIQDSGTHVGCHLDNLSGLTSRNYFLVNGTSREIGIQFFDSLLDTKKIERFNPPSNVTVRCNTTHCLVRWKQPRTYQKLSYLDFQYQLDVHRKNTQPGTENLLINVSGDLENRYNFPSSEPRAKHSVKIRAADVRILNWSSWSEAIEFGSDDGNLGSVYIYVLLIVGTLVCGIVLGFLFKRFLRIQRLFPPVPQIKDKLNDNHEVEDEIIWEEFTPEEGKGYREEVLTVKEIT
# T3: human IL-5R α-chain (human, UniProt Q01344 21-420)
# T3 construct: also called Hu-IL5R α chain isoform 1
# T3 sequence: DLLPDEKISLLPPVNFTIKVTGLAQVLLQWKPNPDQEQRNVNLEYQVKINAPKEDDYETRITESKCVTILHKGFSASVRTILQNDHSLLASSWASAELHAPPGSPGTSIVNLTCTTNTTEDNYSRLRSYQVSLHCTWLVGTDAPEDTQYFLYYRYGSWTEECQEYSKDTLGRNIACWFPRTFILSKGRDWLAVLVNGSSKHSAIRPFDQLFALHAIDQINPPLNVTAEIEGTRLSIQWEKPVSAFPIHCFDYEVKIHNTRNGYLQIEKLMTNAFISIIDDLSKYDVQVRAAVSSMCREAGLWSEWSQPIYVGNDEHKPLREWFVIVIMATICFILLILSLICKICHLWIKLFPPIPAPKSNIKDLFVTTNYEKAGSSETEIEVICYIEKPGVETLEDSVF
# B1: 9A2 (antibody, IgG4, V domains shown)
# VH: EVQLLESGGGLVQPGGSLRLSCAASGFTFSHYHMLWVRQAPGKGLEWVSSIRSSGGFTYYADSVKGRFTISRDNSKNTLYLQMNSLRAEDTAVYYCARFYDSFFDIWGQGTMVTVSS
# VL: DIQMTQSPSSVSASVGDRVTITCRASQGISSWLAWYQQKPGKAPKLLIYAASSLQSGVPSRFSGSGSGTDFTLTISSLQPEDFATYYCQQANSFPITFGQGTRLEIKR
# notes: IgG4pK (IgG4 S241P, kappa); also called parental 9A2
# How the values were obtained:
# human CD131 = biological target: T1, human CD131; assay: cell-based or functional assay
# human IL-3R α-chain = biological target: T4, human IL-3R α-chain (human, UniProt P26951 19-378); assay: flow cytometry, transiently transfected cells
# T4 construct: also called Hu-IL3R α chain
# human GM-CSFR α-chain = biological target: T2, human GM-CSFR α-chain; assay: flow cytometry, transiently transfected cells
# human IL-5R α-chain = biological target: T3, human IL-5R α-chain; assay: flow cytometry, transiently transfected cells
# T4 sequence (P26951 19-378 limits assumed): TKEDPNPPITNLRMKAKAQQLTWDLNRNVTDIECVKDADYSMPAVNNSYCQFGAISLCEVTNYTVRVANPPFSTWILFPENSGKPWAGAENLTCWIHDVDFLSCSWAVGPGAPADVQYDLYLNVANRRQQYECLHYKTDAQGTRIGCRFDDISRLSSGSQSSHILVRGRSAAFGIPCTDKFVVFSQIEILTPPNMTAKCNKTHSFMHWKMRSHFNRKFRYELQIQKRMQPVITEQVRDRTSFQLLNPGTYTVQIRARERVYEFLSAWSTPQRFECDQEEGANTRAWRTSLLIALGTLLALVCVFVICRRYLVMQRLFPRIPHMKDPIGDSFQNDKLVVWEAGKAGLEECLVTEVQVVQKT
binder,measurement,setting,value
B1,"IC50 GM-CSF, TF-1 proliferation",human CD131,456 nM
same,"IC50 IL-3, TF-1 proliferation",human CD131,5.96 nM
same,"IC50 IL-5, TF-1 proliferation",human CD131,1450 nM
same,"pStat5 IC50 GM-CSF, TF-1 bla reporter",human CD131,40 nM
same,"pStat5 IC50 IL-3, TF-1 bla reporter",human CD131,7.3 nM
same,binding result,human IL-3R α-chain,no binding
same,binding result,human GM-CSFR α-chain,no binding
same,binding result,human IL-5R α-chain,no binding
